What all share (assay): ELISA
Assay [1] addresses SARS-CoV-2 receptor binding domain (UniProt P0DTC2 319-541).
The target of assay [2] is T1, SARS-CoV-2 prefusion stabilized trimer protein (WIV02 isolate spike protein) (UniProt P0DTC2 14-1213).
Assay [3] deals with T1, SARS-CoV-2 prefusion stabilized trimer …. The source holds these as a separate data set.

Residue numbers refer to the chain shown, from its start. Like-named read-outs stand apart in the source and are kept apart here.

B1: 8-H3-A (antibody, V domains shown)
VH: EVQLVESGGGLVQPKGSLKLSCAASGFTFNTYAMHWVRQAPGKGLEWVARIRSKSSNYATYYADSVKDRFTISRDDSQSMLYLQMNNLKTEDTAMYYCVRDHDYYGSSYWFTYWGQGTLVTVSA
VL: DVVMTQTPLSLPVSLGDQASISCRSSQSLVHDNGNTYLHWFLQKPGQSPKLLIYKVSNRFSGVPDRFSGSGSGTDFTLKISRVETEDLGVYFCSQSTHVPWTFGGGTKLEIK
Turning to B1, the EC50 in assay [1] stood at 0.19 nM; in assay [2] it was 0.27 nM.

B2: 7-B10-A (antibody, V domains shown)
VH: B1 VH with T60R, D76E, T112A
VL: B1 VL with R24S, D32N, F41Y, T85A
Consider B2, for which the figures for the concentration for a half-maximal effect (EC50) in assay [1] and in assay [2] were 0.08 nM and 0.16 nM, respectively.

B3: 8-L17-A (antibody, V domains shown)
VH: B1 VH with T60R, T112A
VL: B1 VL with D32N, F41Y, T85A
Turning to B3, the EC50 in assay [1] and in assay [2] was 0.27 nM in each case.

B4: 4-M3-A (antibody, V domains shown)
VH: EVQLQQSGPELVKPGDSVKISCKASGYSFTGYFMNWVMQSHGKSLEWIGRINPNNGETFYNQKFKGKATLTVDKSSDTAHMELRSLTSEDSAVYYCARGGTGTGWGQGTTLTVSS
VL: DILMTQSPSSMSVSLGDTVSITCHASQGISSNIGWLQQKPGKSFKGLIYYGTNLEDGVPSRFSGSGSGADYSLTISSLESEDLADYYCIQYAQFPYTFGGGTKLEIK
For the molecule B4, the EC50 in assay [1] was 0.26 nM; in assay [2], 1.94 nM.

B5: 4-A15-A (antibody, V domains shown)
VH: QVQLQQSGAELVKPGASVKISCKASGNAFSSYWMNWVKQRPGKGLEWIGQIYPGDGDTNFNGRFKGKATLTADISSTTAYMLLSSLTSEDSAVYFCASGGYGSSYERDFDYWGQGTTLTVSS
VL: DIQMNQSPSSLSASLGDTITITCHASQNINVWLSWYQQKPGNIPKLLIYKASNLHTGVPSRFSGSGSGTGFTLTISSLQPEDIATYYCQQGHSYPLTFGGGTKLEIK
On to B5, for which the EC50 came to 0.34 nM in assay [3] and 0.33 nM in assay [2].

B6: 4-L4-A (antibody, V domains shown)
VH: QAYLQQSGAELVRPGASVKMSCKASGYTFTSYTVHWVKQTPRQGLEWIGGIYPGNVDTSYNQNFKGKATLTVDKSSSTAYMQLSSLTSEDSAVYFCARDGYYAMDYWGQGTSVTVSS
VL: not shown
As for B6, the EC50 was determined as 0.22 nM in assay [1] and 0.37 nM in assay [2].

B7: 3-E2-A (antibody, V domains shown)
VH: EVQLQQSGPELVKPGASVKISCKASGYTFTDYYMNWVKQSHGKSLEWIGDINPNNGGTSYTQKFKGKATLTVDKSSSKAYMELRSLTSEDSAVYYCARRGDGHYGGFTYWGQGTLVTVSA
VL: not shown
For the molecule B7, the EC50 in assay [1] is 0.8 nM; in assay [2], 0.87 nM.

B8: 2-O12-A (antibody, V domains shown)
VH: B7 VH with P53S, S59T, T61D, K74R, K78T, Y104F
VL: not shown
In the case of B8, the EC50 in assay [1] turned out to be 0.22 nM; in assay [2], 0.84 nM.

B9: 10-L24-A (antibody, V domains shown)
VH: B7 VH with P53S, S59T, T61D, K74R, K78T, Y104F
VL: not shown
For the molecule B9, the concentration for a half-maximal effect (EC50) in assay [1] worked out at 0.31 nM; in assay [2] it was 0.92 nM.

B10: 4-K16-A (antibody, V domains shown)
VH: QIQLVQSGPELKKPGETVKISCKASGYTFTTYGMSWVKQAPGKGLKWMGWMSTYSGVPTYADDFKGRFAFSLETSASTAYLQINNLKNEDTATYFCASGDVGYWGQGTTLTVSS
VL: DIVMTQSQKFMSTSVGDRVSVTCKASQNVGTNVAWYQQKPGQSPKALIYSASYRYSGVPDRFTGSGSGTDFTLTISTVQSEDLAEYFCQQYNIYPSTFGGGTKLEIK
B10: the figures for the EC50 in assay [3] and in assay [2] were 1.01 nM and 1.04 nM, respectively.

B11: 8-H5-A (antibody, V domains shown)
VH: QVTLKESGPGILQSSQTLSLTCSLSGFSLSTSGMGVSWVRQPSGKGLEWLAHIYWDDDKRYTPSLKSRLTISTDSSRKQVFLKITSVDTADTATYYCARRDLHDYDGWFAYWGQGTLVTVSA
VL: B10 VL with S14A, Y53F, T63S, T77N, I93S, S96L, G100S
Turning to B11, the EC50 in assay [1] is 0.13 nM; in assay [2], 0.08 nM.

B12: 10-O3-A (antibody, V domains shown)
VH: QVQLKESGPGLVAPSQSLSITCTVSGFSLTNYAVHWVRQSPGKGLEWLGVIWSDGRTDYNAAFISRLSISKDNSKSQVFFKMNSLQADDTAIYYCVRIEGGSYVGWYFDVWGAGTTVTVSS
VL: DIQMTQSPSSLSASLGGTVTITCKASQDINKFIAWYQHKPGKGPRLLIHYTSTLQPGIPSRFSGSGSGRDYSFSISNLEPEDIATYYCLQYDNLLTFGAGTKLELK
In the case of B12, the values for the EC50 in assay [3] and in assay [2] were 3.37 nM and 3.47 nM, respectively.

B13: 9-J11-A (antibody, V domains shown)
VH: QVQLQQSGAELVKPGASVKMSCMASGYTFTTYPIEWMKQIHGKSLEWIGNFHPYNDDSKYNEKFKGKATLSVEKSSSTVYLELSRSTSDDSAVYYCARGSYGPYWYFDVWGTGTTVTVSS
VL: DIQMTQSPASLSASVGETVTITCRASGDIHNYLVWYQQKQGKSPQLLVYNAKALADGVPSRFSGSGSGTQYSLKINSLQPDDFGSYYCQHFWSIPYTFGGGTKLEIK
Take B13: the EC50 in assay [3] and in assay [2] was 0.22 nM in each case.

B14: 9-K4-A (antibody, V domains shown)
VH: QAYLQQSGAELVRPGASVKMSCKASGYTFPNYSFHWVKQTPRQGLEWIGAIYPGNDDTSYNQRFKGKATLTVDKSSSTAYMQLSSLTSEDSAVYFCARDYSNYPFDCWGQGTTLTVSS
VL: DIVLTQSPASLAVSLGQRATISCRASKSVSTSGYSYMHWYQQKPGQPPKLLIYLASNLESGVPARFSGSGSGTDFTLNIHPVEEEDAATYYCQHSRELPPTFGGGTKLEIK
As for B14, the figures for the EC50 in assay [1] and in assay [2] were 0.73 nM and 1.13 nM, respectively.

B15: 10-L12-A (antibody, V domains shown)
VH: B14 VH with P30T, N31S, F34M, D56G, R63K, A97T, C107Y
VL: B14 VL with M37L
With B15, the results for the EC50 in assay [1] and in assay [2] were 0.13 nM and 0.11 nM, respectively.

B16: 10-O24-A (antibody, V domains shown)
VH: B14 VH with P30T, N31S, F34M, R63K, K74R, A97T, C107Y
VL: B14 VL with S14F, K43R
B16: the 50% effective concentration (EC50) in assay [1] worked out at 3.07 nM; in assay [2], 1.07 nM.

B17: 2-H7-A (antibody, V domains shown)
VH: QAYLQQSGAELVRPGASVKMSCKASGYTFTGYTMHWVKQTPRQGLEWIGAIYPENGDTSYNQKFKGKATLTVDKSSSTAYMQLSSLTSEDSAVYFCARDGYDVLYGMDYWGQGTSVTVSS
VL: B14 VL with P100W, E109D
Regarding B17, the EC50 in assay [1] was determined as 0.08 nM; in assay [2] it was 0.13 nM.

B18: 3-P7-A (antibody, V domains shown)
VH: B14 VH with P30T, N31S, F34M, R63K, A97T, S101T, C107Y
VL: B14 VL with A12P, K43R, G68A, L108V
B18: the EC50 in assay [1] was determined as 2.93 nM; in assay [2], 38.1 nM.

B19: 5-P24-A (antibody, V domains shown)
VH: B14 VH with P30T, N31S, F34M, D56G, N61T, R63K, C107Y
VL: not shown
For the molecule B19, the EC50 in assay [1] stood at 0.12 nM; in assay [2] it was 0.29 nM.

B20: 10-I12-A (antibody, V domains shown)
VH: RVQLQQSGPELVRPGTSVKISCKASGYTFTDSYINWVTQRPGQGLDWIGWIFPGNDNTYYNEKFEGKATLTLDKSSSTAYMLLSSLTSEDSAVYFCARSGGLRLGFAYWGQGTLVTVSA
VL: NIVLTQSPASLAVSRGQRATISCRASESVDSYGHSFIHWYQQKPGQPPKILIYLASKLESGVPARFSGSGSRTDFTLTIDPVEADDAATYYCQQNNEDPWTFGGGTKLEIK
Regarding B20, the EC50 in assay [3] and in assay [2] was 64.4 nM in each case.

B21: 7-N20-A (antibody, V domains shown)
VH: QVQLVETGGGLVRPGNSLKLSCVTSGFTFSNYRMHWLRQPPGKRLEWIGIITDKSDNYGANYAESVKGRFAISRDDSKSSVYLEMKRLREEDTATYFCSRDGYDWYFDLWGTGTTVTVSS
VL: DIVMTQSHKFMSTSVGDRVRITCKASQDVGIVVAWYQQKPGQSPKLLIYWASTRHTGVPDRFTGSGSGTDFTLTISNVQSEDLADYFCQQYSSYPTFGGGTKLEIK
Turning to B21, a half-maximal response in assay [2] (EC50) required 0.24 nM.
